Measurements: patent publication US5736294A, “Reagents and methods for modulating gene expression through RNA mimicry” (ISIS Pharmaceuticals, Inc., priority 1991, dated 1998)

T1: HIV-1 Tat 25-mer peptide (tat25) (Human immunodeficiency virus 1, UniProt P69698 SEQ:1-25)
T1 chain: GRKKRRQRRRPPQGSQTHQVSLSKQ

T2: HIV-1 Tat 37-mer peptide (tat37) (Human immunodeficiency virus 1, UniProt P69698 SEQ:1-37)
T2 chain: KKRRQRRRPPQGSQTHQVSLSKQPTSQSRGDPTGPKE


Tests used:
[1] = biological target: T1, HIV-1 Tat 25-mer peptide (tat25); assay: EMSA; 1:1 KD; repeated in Table 4; conditions: protein: synthetic, tags: peptide fragment, label: 32P, hairpin, stem-bulge-loop
[2] = biological target: T2, HIV-1 Tat 37-mer peptide (tat37); assay: EMSA; 1:1 KD; 2-3:1 KD 8200 nM; Table 4 gives 60 nM; 4 C; conditions: protein: synthetic; tags: chemically synthesized peptide, RP HPLC purified (UCSF Biotechnology Resource Core); label: 32P; hairpin, stem-bulge-loop
[3] = biological target: T1, HIV-1 Tat 25-mer peptide (tat25); assay: EMSA; 1:1 KD; repeated in Table 4 under tat37 heading; conditions: protein: synthetic, tags: peptide fragment, label: 32P, hairpin, stem-bulge-loop

Row | Binder | Kd [1] [nM] | Kd [2] [nM] | Kd [3] [nM]
1 | GCCAGAUCUGAGCCUGGGAGCUCUCUGGC (ssRNA, 2'-OMe throughout) [2'-OMe deltaTAR #2306 29-mer (16-45 -A17)] | 31.6 | 86.6 | 
2 | GCCAGAUCUGAGCCUGGGAGCUCUCUGGC (ssRNA) [deltaTAR29 #3153 (16-45 -A17)] |  |  | 17.3
